Measurements as given in paper PMC12274614, “Scavenger receptor CD163 multimerises to allow uptake of diverse ligands” (Nature Communications, 2025).
Each block holds one molecule with its values, some of them ahead of it.

Key:
[1] = molecular target: CD163 ectodomain (CD163-WT) (human) (UniProt Q86VB7)
[2] = molecular target: haptoglobin Hp(1-1) (human) (UniProt P00738); experiment: MST; Monolith NT.115, 25 °C, 20 mM HEPES pH 7.5, 150 mM NaCl, […] CaCl2; Alexa Fluor 647-labelled Hb (200 nM) or Hp(1-1) (500 nM or 1.0 μM) held constant, CD163 ectodomain (WT or R809T-BAP) titrated
[3] = molecular target: T1, CD163-WT ectodomain (C-tag, without BAP tag) (human, UniProt Q86VB7-1 46-1050); experiment: MST; Monolith NT.115, 25 °C; 20 mM HEPES pH 7.5, 150 mM NaCl, 2.5 mM CaCl2; fluorescent Hb (200 nM) or Hp(1-1) (0.50 µM) mixed with two-fold dilution series of CD163 (WT from 24.4 or 37.9 µM, R809T from 41.5 µM); fit to the combined triplicate; conditions: both partners purified
T1 construct: Cloned into pHLsec with a C-terminal GAA linker and a C-tag; Dimers and trimers in the cryo-EM structures; also called WT CD163; CD163A

IC50 of competition for the uptake of 50 nM labelled Hp(2-2)Hb into HEK293 cells expressing full-length CD163-GFP, FACS [1]: 0.04 µM
uptake of fluorescently labelled Hp(2-2)Hb (0-600 nM) into HEK293 cells with or without full-length CD163-GFP (residues 46-1156), FACS [1]: 10 fold
Molecule: Hp(2-2)Hb (haptoglobin isoform 2 - haemoglobin complex) (from UniProt P00738-1 19-160; P00738-1 162-406)

Kd [2]: 27 µM
Molecule: CD163 ectodomain (CD163-WT) (from UniProt Q86VB7-1 46-1050) (domain or fragment)

Kd [3]: 26.6 µM
B1: Haptoglobin Hp(1-1), fluorescently labelled (natural protein)
chain 1: VDSGNDVTDIADDGCPKPPEIAHGYVEHSVRYQCKNYYKLRTEGDGVYTLNNEKQWINKAVGDKLPECEAVCGKPKNPANPVQ
chain 2: ILGGHLDAKGSFPWQAKMVSHHNLTTGATLINEQWLLTTAKNLFLNHSENATAKDIAPTLTLYVGKKQLVEIEKVVLHPNYSQVDIGLIKLKQKVSVNERVMPICLPSKDYAEVGRVGYVSGWGRNANFKFTDHLKYVMLPVADQDQCIRHYEGSTVPEKKTPKSPVGVQPILNEHTFCAGMSKYQEDTCYGDAGSAFAVHDLEEDTWYATGILSFDKSCAVAEYGVYVKVTSIQDWVQKTIAEN
modifications: Alexa Fluor 647 (NHS ester labelling of the protein; sites not stated) | Alexa Fluor 647 (NHS ester labelling of the protein; sites not stated)
